Tests used:
tUI = tUI (UniProt Q9UMX0); assay: other fluorescence titration
tIVR = tIVR (UniProt P45974); assay: other fluorescence titration
Atto532-tISR = Atto532-tISR (UniProt P45974); assay: other fluorescence titration
Atto532-tUI [1] = target: Atto532-tUI (UniProt Q9UMX0); assay: other fluorescence titration
Atto532-tUI [2] = target: Atto532-tUI (UniProt Q9UMX0); assay: stopped-flow fluorescence kinetics

Atto532-tUI, sequence (Q9UMX0 whole entry, looked up): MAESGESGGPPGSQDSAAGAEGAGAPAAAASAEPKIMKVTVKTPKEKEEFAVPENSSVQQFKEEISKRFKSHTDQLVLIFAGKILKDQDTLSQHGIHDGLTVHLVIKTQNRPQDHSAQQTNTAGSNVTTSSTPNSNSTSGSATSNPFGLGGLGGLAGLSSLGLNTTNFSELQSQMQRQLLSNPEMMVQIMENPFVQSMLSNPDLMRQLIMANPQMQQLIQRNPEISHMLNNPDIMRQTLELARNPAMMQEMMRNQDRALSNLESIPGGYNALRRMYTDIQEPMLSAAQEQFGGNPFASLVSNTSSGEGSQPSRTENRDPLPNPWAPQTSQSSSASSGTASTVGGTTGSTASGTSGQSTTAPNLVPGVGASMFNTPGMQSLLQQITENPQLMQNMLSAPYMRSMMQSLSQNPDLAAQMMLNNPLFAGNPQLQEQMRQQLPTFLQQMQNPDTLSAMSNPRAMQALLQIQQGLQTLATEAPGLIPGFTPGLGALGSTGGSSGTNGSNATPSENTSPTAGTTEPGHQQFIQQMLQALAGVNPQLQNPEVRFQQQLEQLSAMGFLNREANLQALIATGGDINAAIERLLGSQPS
tIVR, sequence (P45974 whole entry, looked up): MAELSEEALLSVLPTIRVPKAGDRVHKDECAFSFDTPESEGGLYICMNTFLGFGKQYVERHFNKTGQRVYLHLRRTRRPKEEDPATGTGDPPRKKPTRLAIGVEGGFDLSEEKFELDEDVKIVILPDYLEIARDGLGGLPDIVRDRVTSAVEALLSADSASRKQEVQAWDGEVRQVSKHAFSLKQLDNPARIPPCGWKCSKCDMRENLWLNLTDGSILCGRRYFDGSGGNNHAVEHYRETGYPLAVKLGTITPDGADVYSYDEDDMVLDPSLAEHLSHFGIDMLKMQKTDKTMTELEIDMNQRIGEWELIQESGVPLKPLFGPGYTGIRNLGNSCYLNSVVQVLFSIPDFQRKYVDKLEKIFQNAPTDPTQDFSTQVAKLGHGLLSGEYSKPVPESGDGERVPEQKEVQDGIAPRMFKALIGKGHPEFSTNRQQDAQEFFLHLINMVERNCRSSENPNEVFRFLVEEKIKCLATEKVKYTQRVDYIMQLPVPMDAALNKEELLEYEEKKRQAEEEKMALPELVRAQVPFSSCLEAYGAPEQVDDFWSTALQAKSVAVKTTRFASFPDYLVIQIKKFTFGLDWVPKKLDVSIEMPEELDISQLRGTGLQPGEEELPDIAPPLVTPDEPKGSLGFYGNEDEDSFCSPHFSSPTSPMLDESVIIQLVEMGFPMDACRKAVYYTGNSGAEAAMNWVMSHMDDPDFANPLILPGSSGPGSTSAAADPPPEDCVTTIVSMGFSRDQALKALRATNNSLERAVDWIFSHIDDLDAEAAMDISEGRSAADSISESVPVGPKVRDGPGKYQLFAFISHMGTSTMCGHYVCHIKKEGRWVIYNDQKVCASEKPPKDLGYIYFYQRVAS
Nedd8, sequence (Q15843 1-76): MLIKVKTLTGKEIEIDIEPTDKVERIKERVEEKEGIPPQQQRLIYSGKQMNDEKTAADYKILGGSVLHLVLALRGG
tUI, sequence (Q9UMX0 whole entry, looked up): as the sequence (Q9UMX0 whole entry, looked up) above
Atto532-tISR, sequence (P45974 whole entry, looked up): as the sequence (P45974 whole entry, looked up) above

| Ki (tUI) [nM] | Kd (tIVR) [nM] | Ki (tIVR) [nM] | Kd (Atto532-tISR) [nM] | Kd (Atto532-tUI [1]) [nM] | Kd (Atto532-tUI [2]) [nM] | fold preference for Ub over Nedd8 (tIVR) [fold] | fold higher affinity for Ub than Nedd8 (Atto532-tUI [1]) [fold] | Substance |
| --- | --- | --- | --- | --- | --- | --- | --- | --- |
| 0.194 | 25.4 | 19 | 24.3 | 0.066 | 0.0564 |  |  | ubiquitin (from UniProt P0CG48 1-76) (natural protein) |
|  |  |  |  |  |  | 3000 | 120 | Nedd8 (from UniProt Q15843 1-76) (natural protein) |
